The values below come from patent US20220332804A1 (CSL INNOVATION, published 2022).

Positions count from the first letter of the chain named.

Common to all, as to assay: SPR, KD relative to WT C2;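 also: biacore SPR at 37 °C, anti-C2 mAbs captured via immobilised goat anti-human IgG, C2 alanine or serine surface mutants as analytes, 1:1 model fitted, double-referenced sensograms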
On the technique in general: In SPR one partner is held on a chip, and binding of the other changes the refractive index at the surface.

The target in one assay is T1, human C2 S428A (human, UniProt P06681 21-752).
T1 sequence: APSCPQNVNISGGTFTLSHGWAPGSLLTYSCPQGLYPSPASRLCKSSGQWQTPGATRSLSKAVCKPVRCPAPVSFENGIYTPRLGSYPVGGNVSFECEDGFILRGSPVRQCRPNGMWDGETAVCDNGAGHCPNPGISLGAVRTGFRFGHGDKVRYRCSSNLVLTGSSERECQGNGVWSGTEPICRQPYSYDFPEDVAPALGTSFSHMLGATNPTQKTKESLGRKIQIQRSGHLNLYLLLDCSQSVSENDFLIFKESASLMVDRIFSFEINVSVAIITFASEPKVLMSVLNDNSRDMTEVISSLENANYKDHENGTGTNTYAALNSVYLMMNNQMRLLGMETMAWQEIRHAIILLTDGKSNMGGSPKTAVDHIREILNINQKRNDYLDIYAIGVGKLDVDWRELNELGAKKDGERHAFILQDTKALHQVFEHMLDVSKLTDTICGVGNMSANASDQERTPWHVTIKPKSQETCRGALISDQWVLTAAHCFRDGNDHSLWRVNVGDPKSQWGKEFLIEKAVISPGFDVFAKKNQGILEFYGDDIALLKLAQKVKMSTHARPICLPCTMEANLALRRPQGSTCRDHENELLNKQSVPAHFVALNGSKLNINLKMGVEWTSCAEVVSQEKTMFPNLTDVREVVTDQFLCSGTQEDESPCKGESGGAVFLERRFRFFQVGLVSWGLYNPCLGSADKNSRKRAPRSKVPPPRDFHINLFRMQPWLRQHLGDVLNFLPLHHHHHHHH

In a further assay the target is T2, human C2 V418A (human, UniProt P06681 21-752).
T2 sequence: T1 sequence with V398A, A408S

A further assay concerns the target T3, human C2 G466A (human, UniProt P06681 21-752).
T3 sequence: T1 sequence with A408S, G446A

The target of the next assay is T4, human C2 N621A (human, UniProt P06681 21-752).
T4 sequence: T1 sequence with A408S, N601A

B1: RF16-226 (antibody, human IgG4 S228P, lambda)
heavy: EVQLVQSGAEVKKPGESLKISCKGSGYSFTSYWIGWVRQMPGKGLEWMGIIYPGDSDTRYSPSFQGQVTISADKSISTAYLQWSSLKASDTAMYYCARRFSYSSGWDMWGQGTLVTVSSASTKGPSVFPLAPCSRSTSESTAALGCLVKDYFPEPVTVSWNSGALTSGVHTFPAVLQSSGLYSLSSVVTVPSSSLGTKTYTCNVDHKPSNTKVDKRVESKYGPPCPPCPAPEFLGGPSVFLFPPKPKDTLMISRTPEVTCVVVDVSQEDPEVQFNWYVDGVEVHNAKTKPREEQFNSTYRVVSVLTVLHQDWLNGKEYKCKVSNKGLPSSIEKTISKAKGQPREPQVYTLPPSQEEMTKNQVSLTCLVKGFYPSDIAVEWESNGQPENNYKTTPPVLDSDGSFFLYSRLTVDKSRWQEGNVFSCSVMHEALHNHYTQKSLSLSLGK
light: SYELTQPPSVSVSPGQTARITCSGDALTSKYVAWYQQKSGLAPLLVIYEDTRRPSGIPAKFSGSSSGSVATLTISGAHGDDEADYYCYSTDASGHQRVFGGGTKLTVLSQPKAAPSVTLFPPSSEELQANKATLVCLISDFYPGAVTVAWKADGSPVKAGVETTKPSKQSNNKYAASSYLSLTPEQWKSHRSYSCQVTHEGSTVEKTVAPTECS
notes: pH-dependent anti-C2 antibody from a phage display library; also called WT
On to B1, for which the Fold diff in the assay with human C2 S428A came out at 2 fold; with human C2 V418A, 1 fold; with human C2 G466A, 3 fold; with human C2 N621A, 5 fold.
